{"source": "patent US20240270804", "biological_target": "T1, myc- and green-fluorescent protein (GFP) tagged mAKAP 1694-1833 (UniProt Q9WVC7)", "T1 sequence": "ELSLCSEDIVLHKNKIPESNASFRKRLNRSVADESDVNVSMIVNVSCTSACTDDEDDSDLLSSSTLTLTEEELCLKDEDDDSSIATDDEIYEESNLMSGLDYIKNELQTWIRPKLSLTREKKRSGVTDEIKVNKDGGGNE", "data": [{"substance": "endogenous CaMKII (Ca2+/calmodulin-dependent protein kinase II) of neonatal rat ventricular myocytes", "values": [{"measurement": "HDAC4 phosphorylation (basal and Angiotensin II-induced) in neonatal myocytes", "value": "both basal and Angiotensin II-induced HDAC4 phosphorylation in neonatal myocytes is inhibited by mAKAP 1694-1833 expression"}]}]}
